In patent publication US20030049211A1, “Remedies and preventives for dental diseases” (priority 2000, published 2003):

Assays:
PTHrP (1-34) [1] = target: T1, PTHrP (1-34) (Homo sapiens, UniProt P12272); assay: Hybridoma screening by solid phase RIA; format: binding; design: mixed with an equivalent amount of 4 ng/ml of PTHrP (1-34); host or cells: peptide added from outside to rat ROS17/2.8-5 cells; conditions: hybridoma culture supernatant
Method: The screening of hybridomas was performed by determining the presence of PTHrP-recognition antibodies in the culture supernatant of the wells in which cell growth had been observed in HAT medium, by solid phase RIA method. The hybridomas were collected from the wells in which the binding ability to the PTHrP-recognition antibodies had been confirmed. The hybridomas thus obtained was suspended into RPMI-1640 medium containing 15% FCS supplemented with OPI-supplement (Sigma), followed by unification of the hybridomas by limiting dilution method.

PTHrP (1-34) [2] = target: T1, PTHrP (1-34); assay: ELISA, determination of antigen-binding ability; design: coating buffer supplemented with 1 μg/ml of human PTHrP (1-34) (Peptide Research Institute); purchased Peptide Research Institute; conditions: antibodies expressed in COS-7 cells; H-chain humanized version a
Method: An ELISA plate for the determination of antigen-binding ability was prepared as follows. Each well of a 96-well ELISA plate was coated with 100 μl of a coating buffer supplemented with 1 μg/ml of human PTHrP (1-34) (Peptide Research Institute), and then blocked with 200 μl of a dilution buffer. Each well was added with each of the serial dilutions of the COS-7 cell culture supernatant in which each of the chimeric antibodies had been expressed, or added with each of the serial dilutions of each of the chimeric antibodies per se in a purified form. After the plate was incubated at room temperature and washed with PBS-Tween 20, each well of the plate was added with 100 μl of a solution of alkaline phosphatase-conjugated goat anti-human IgG antibodies (TAGO). After the plate was incubated at room temperature and washed with PBS-Tween 20, each well of the plate was added with 1 mg/ml of a substrate solution (“Sigma 104”, p-nitrophenylphosphoric acid, SIGMA). The solution was measured on its absorbance at 405 nm using Microplate Reader (Bio Rad).
An ELISA plate for determining antigen-binding ability was prepared as follows. Each well of a 96-well ELISA plate (Maxisorp, NUNC) was coated with 100 μl of a coating buffer containing 1 μg/ml of human PTHrP (1-34) and then blocked with 200 μl of a dilution buffer. Subsequently, each well was added with each of the serial dilutions of the COS-7 cell culture supernatant in which each of the hybrid antibodies and humanized antibodies was expressed, or added with each of the serial dilutions of each of the hybrid antibodies and humanized antibodies in a purified form. The plate was incubated at room temperature and washed with PBS-Tween 20. Subsequently, each well was added with 100 μl of alkaline phosphatase-conjugated goat anti-human IgG antibody (TAGO). The plate was incubated at room temperature and washed with PBS-Tween 20. Subsequently, each well was added with 1 mg/ml of a substrate solution (“Sigma 104”, p-nitrophenylphosphoric acid, SIGMA). The solution was measured on its absorbance at 405 nm using Microplate Reader (Bio Rad).

binding ability to PTHrP (1-34) (PTHrP (1-34) [1])	Molecule	antigen-binding (PTHrP-binding) activity compared with the chimeric #23-57-137-1 antibody (PTHrP (1-34) [2])
high binding ability	#23-57-137-1: mouse monoclonal antibody against human PTHrP (1-34) from hybridoma #23-57-137-1 (FERM BP-5631) (antibody, V domains shown) VH: EVQLVESGGDLVKPGGSLKLSCAASGFTFSSYGMSWIRQTPDKRLEWVATISSGGSYTYYPDSVKGRFTISRDNAKNTLYLQMSSLKSEDTAMFYCARQTTMTYFAYWGQGTLVTVSA VL: QLVLTQSSSASFSLGASAKLTCTLSSQHSTYTIEWYQQQPLKPPKYVMDLKQDGSHSTGDGIPDRFSGSSSGADRYLSISNIQPEDEAMYICGVGDTIKEQFVYVFGGGTKVTVLGQP	–
–	antibody having both a humanized H-chain version “a” and a chimeric L-chain: antibody with humanized #23-57-137-1 H-chain version a and chimeric L-chain (antibody, V domains shown) VH: QVQLVESGGGVVQPGRSLRLSCAASGFTFSSYGMSWVRQAPGKGLEWVATISSGGSYTYYPDSVKGRFTISRDNSKNTLYLQMNSLRAEDTAVYYCARQTTMTYFAYWGQGTLVTVSS VL: QLVLTQSSSASFSLGASAKLTCTLSSQHSTYTIEWYQQQPLKPPKYVMDLKQDGSHSTGDGIPDRFSGSSSGADRYLSISNIQPEDEAMYICGVGDTIKEQFVYVFGGGTKVTVLGQP	the same level of PTHrP-binding activity as that of a chimeric antibody
–	m/hMBC1La λ: hybrid antibody: humanized H-chain with mouse FR1,2/human FR3,4 hybrid L-chain (from version a) (antibody, V domains shown) VH: QVQLVESGGGVVQPGRSLRLSCAASGFTFSSYGMSWVRQAPGKGLEWVATISSGGSYTYYPDSVKGRFTISRDNSKNTLYLQMNSLRAEDTAVYYCARQTTMTYFAYWGQGTLVTVSS VL: QLVLTQSSSASFSLGASAKLTCTLSSQHSTYTIEWYQQQPLKPPKYVMDLKQDGSHSTGDGIPDRFSGSSSGAERYLTISSLQSEDEADYYCGVGDTIKEQFVYVFGGGTKLTVL	the same level of antigen-binding activity as that of the chimeric #23-57-137-1 antibody
–	m/hMBC1Ldλ: hybrid antibody: humanized H-chain with mouse FR1,2/human FR3,4 hybrid L-chain (from version d, 87 isoleucine) (antibody, V domains shown) VH: QVQLVESGGGVVQPGRSLRLSCAASGFTFSSYGMSWVRQAPGKGLEWVATISSGGSYTYYPDSVKGRFTISRDNSKNTLYLQMNSLRAEDTAVYYCARQTTMTYFAYWGQGTLVTVSS VL: QLVLTQSSSASFSLGASAKLTCTLSSQHSTYTIEWYQQQPLKPPKYVMDLKQDGSHSTGDGIPDRFSGSSSGAERYLTISSLQSEDEADYICGVGDTIKEQFVYVFGGGTKLTVL	the same level of antigen-binding activity as that of the chimeric #23-57-137-1 antibody
–	hmmMBC1L(λ): hybrid antibody: humanized H-chain with human FR1/mouse FR2,3,4 hybrid L-chain (antibody, V domains shown) VH: QVQLVESGGGVVQPGRSLRLSCAASGFTFSSYGMSWVRQAPGKGLEWVATISSGGSYTYYPDSVKGRFTISRDNSKNTLYLQMNSLRAEDTAVYYCARQTTMTYFAYWGQGTLVTVSS VL: QLVLTQSPSASASLGASVKLTCTLSSQHSTYTIEWYQQQPLKPPKYVMDLKQDGSHSTGDGIPDRFSGSSSGADRYLSISNIQPEDEAMYICGVGDTIKEQFVYVFGGGTKVTVL	the same level of antigen-binding activity as that of the chimeric #23-57-137-1 antibody
